Consider one molecule from patent publication US20230340152A1 (published 2023).

Experiment in all cases: SPR (ProteOn), CD73 variant immobilized on HTG chip
Assay [1] deals with T1, KO_Cterm CD73 chimera (human; chicken).
T1 construct: also called C-terminal domain-swapped CD73
T1 chain: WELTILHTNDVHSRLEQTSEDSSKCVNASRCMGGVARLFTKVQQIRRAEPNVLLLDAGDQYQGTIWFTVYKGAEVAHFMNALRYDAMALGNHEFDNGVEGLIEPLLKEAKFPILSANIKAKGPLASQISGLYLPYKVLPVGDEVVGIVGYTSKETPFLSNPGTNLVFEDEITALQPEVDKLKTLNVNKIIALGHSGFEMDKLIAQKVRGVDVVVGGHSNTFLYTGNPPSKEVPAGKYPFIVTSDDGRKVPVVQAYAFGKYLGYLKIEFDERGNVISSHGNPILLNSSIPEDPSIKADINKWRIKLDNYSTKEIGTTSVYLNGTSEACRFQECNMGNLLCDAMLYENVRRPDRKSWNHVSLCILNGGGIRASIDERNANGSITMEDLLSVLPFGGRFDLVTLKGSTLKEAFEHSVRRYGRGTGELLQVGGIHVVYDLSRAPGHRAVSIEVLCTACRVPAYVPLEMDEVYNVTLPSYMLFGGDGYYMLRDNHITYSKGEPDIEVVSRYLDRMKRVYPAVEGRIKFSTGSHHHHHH
The procedure:
(§1) Binding of MEDI9447 to wild-type and mutant CD73 proteins was measured by surface plasmon resonance (SPR) using a ProteOn instrument (BioRad). CD73 crude cell supernatant protein samples were diluted to 3 µg/ml in PBS, 0.005% Tween-20, pH 7.4 (BioRad) and immobilized to ~400 RU on a HTG tris-NTA sensor chip (BioRad) pre-activated with 10 mM NiSO₄, 10 mM MES, pH 6.0 (BioRad). An equivalently diluted crude cell supernatant sample from non-transfected cells was included as a reference channel control. Sensorgrams were recorded by flowing two-fold dilutions of MEDI9447 prepared in PBS, 0.005% Tween-20, pH 7.4, ranging from 5 nM to 0.31 nM. […] Antibody binding was measured at a flow rate of 100 µL/min with a 3 min association phase and 20 min dissociation phase. The sensor chip surface was regenerated between each run by an 800 s injection of 300 mM EDTA, pH 8.5 (BioRad) at a flow rate of 30 µL/min. Binding kinetics were analyzed using the ProteOn data analysis software. Double referencing was performed and, unless noted otherwise, a 1:1 Langmuir binding model was utilized to fit the data. Some CD73 variants containing mutations within the amino acid region 171-188 fit poorly to a 1:1 model (i.e., Chi² values >10% of Rmax). Where noted, these variants were fit with a heterogenous antigen (2:1) model. […] Due to the assay format (antigen immobilized) and the dimeric state of CD73, KD values may be exaggerated due to avidity effects. However, it is not anticipated that this impacts ranking of MEDI9447 binding to the different CD73 variants.

For assay [2], the target named is T2, HDX_E1 CD73 chimera (human; chicken, UniProt P21589 27-553).
T2 chain: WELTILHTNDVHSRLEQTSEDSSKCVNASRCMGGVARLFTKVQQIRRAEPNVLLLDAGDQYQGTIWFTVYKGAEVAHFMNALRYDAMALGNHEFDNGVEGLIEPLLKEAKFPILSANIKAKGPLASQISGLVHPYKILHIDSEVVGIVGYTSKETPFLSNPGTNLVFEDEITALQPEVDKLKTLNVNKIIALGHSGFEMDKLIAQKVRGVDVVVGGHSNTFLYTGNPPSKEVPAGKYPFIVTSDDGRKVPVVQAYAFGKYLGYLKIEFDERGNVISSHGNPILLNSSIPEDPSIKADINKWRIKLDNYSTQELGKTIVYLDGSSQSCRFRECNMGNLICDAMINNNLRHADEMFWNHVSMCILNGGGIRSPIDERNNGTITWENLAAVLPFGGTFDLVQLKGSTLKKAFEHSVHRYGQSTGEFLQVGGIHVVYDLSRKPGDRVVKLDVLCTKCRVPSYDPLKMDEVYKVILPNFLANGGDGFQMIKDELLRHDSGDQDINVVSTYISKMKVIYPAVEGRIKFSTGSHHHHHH
The procedure: as §1

Assay [3] deals with T3, Human CD73 V144K+N185G, His-tagged (human, UniProt P21589 27-549).
T3 chain: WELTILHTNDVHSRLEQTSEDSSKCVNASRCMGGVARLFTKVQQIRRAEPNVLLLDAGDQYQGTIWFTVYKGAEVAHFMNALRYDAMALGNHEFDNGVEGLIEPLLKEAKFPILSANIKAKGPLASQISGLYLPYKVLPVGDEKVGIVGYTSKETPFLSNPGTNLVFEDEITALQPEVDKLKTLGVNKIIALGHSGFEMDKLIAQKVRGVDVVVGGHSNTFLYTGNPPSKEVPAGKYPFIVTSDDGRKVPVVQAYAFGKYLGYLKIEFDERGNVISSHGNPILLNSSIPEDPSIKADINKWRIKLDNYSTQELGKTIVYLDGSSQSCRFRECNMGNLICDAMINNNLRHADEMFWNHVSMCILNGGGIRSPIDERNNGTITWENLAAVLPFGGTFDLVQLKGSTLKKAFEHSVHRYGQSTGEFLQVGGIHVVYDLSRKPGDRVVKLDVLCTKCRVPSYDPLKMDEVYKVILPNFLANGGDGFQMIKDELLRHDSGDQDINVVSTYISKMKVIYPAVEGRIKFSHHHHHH
The procedure:
as §1

B1: MEDI9447 (antibody, human IgG1, lambda, V domains shown)
VH: EVQLLESGGGLVQPGGSLRLSCAASGFTFSSYAYSWVRQAPGKGLEWVSAISGSGGRTYYADSVKGRFTISRDNSKNTLYLQMNSLRAEDTAVYYCARLGYGRVDEWGRGTLVTVSS
VL: QSVLTQPPSASGTPGQRVTISCSGSLSNIGRNPVNWYQQLPGTAPKLLIYLDNLRLSGVPDRFSGSKSGTSASLAISGLQSEDEADYYCATWDDSHPGWTFGGGTKLTVLG
notes: Human IgG1-TM (L234F, L235E, P331S), lambda light chain; also called clone 10.3 antibody; 73combo3
Take B1: in assay [1], the Kd (as a rule, the concentration at which binding is half-saturated) worked out at 1.7 pM; the off-rate (koff) (in general, the rate constant with which the complex falls apart) worked out at 8.1e-06 s⁻¹; the association rate constant (kon) (usually the second-order rate constant of association) turned out to be 4.75e+06 M⁻¹ s⁻¹. In assay [2], binding was put at a Kd of 9.9 pM, the koff stood at 2.12e-05 s⁻¹ and the on-rate (kon) is 2.15e+06 M⁻¹ s⁻¹. In assay [3], the binding result is reported as “no binding”.
